From the DeepSol protein solubility set

assay: soluble on expression in E. coli; label from the status in PepcDB or PDB records

Row | Sequence | soluble on expression in E. coli
1 | MGSDKIHHHHHHAETVVVRLGLFTESISLTELQNAAKTGELPRSLQSYAKGLSEQQRRFLLGALGMNIPMNVVTINKLLNTQIGTTILNDFATALARKDNAGVQALRGGLVLGSTAPGGLSILSFIAAYPSKRLEIDLPKAFIVAGNLNTAFWRTQQFMVAIAPRLDSTTSQIAFPFDPSQPGTAQVKILNLSLNDQKRQRKIPVDIYWSNDATANKPLIVFSHGLGSVRTDLRYLAEHLASHGYVVAALEHPGSNEDNINSALQGKTRPVKPQEFLNRPQDVSFVLDELEKLNQTTNHPLQGKLATMNAMVVGYSFGGSTALALAGGELQLERLKQRCKKNLAILSLGEAMQCIAQELPENTYQLRDTRIKQAIALNPTTSLIFGETGLTKVQVPTLVLAGSADKTTPALTEQIVGFDKIPSPKWLVGIVGGTHLSVKDPSKTMDQIGQPNTPISGGEVVGEQAADIRKYLKAITLAFAAQMTPEAKNYAIFLTSDYAQFASTKAFPFRLITQIPSNAMPVVKEFGDK | not soluble
2 | MFVRSLFLALLLATIVAADIDFSTCARMDVPILKKAAQGLCITSCSMQNCGTGSCKKRSGRPTCVCYRCANGGGDIPLGALIKRG | not soluble
3 | MEIKQTIAKNLNRVKNELGLKNQDLAEVMGVTRQTIAKYLKGEQIPDSAKLFLLSRRLNIPMKDLIVSSDDQREPMSSFMFRADNPKENFRLIDQNQVNRIMDDYYELLASFGEASVAYLPPTYKLKLVDHELTEEHKTIIRQAAEQTRKMFGLDHVIPSDIYAVLEHHGIHVIALKTIDKKIDGLSAYSEEKGAFIFLNDHDEIPEERKRFSVIHELGHLIFHREEYRSDLSSLTYSSARREINEKVATLFASYFLIPREQLREYAYYFKRYVTIETIMELKRQFFVSAEAFMRALLDEQYISGRTYGFLRKTLREQGYKEQEPAPIDYIPKNRKLTYFVKQAYFEGSITINKVCEILGCDLRTAREMIKGWYKEHGCSENTGAL | not soluble
4 | MGSDKIHHHHHHMRLPPLNALRAFEAAARHNGYIAAAEELCVTRGAVSRHIKLLEDHLGVTLFHRNHRGVELTAAGRQLLPVLTETFARIAREAEQISAMTRDVRIICPPALSIRWLFPRLEEFQAAHPDIRVRLTTEFYGAKGFDDTEHDLGVSVEHVSGRGAGIASMPLFPMVLSPACSPALLRQRPLSAPADLARMTLLHESPQRRDWAHWLSSFGVRGVDAGSGPTFPNLDMAARAATMGAGVVMADLALCQEELRAGTLVLPFPEMTCTTPQGGYVLLGARARWDEPHLRAFRDWAASSSADLVACMGA | not soluble
5 | MGSDKIHHHHHHMAKGSKGFIVSIMGPVVDVKFPEEELPDIYNALEVVNPQTGQKVVLEVEQLIGDGVVRTVAMDSTDGLTKGLEVVDTGAPITAPVGKEVLGRILNVIGEPVDEAGEIKAKERWPIHRPAPELVEQSTEIEILETGIKVIDLLAPFPKGGKIGFFGGAGVGKTVLVMELIRNIAIEHKGFSVFAGVGERTREGNELWLEMQESGVLGNTVLVFGQMNEPPGARFRVALTALTIAEYFRDVEGRDVLLFIDNIFRFVQAGSEVSALLGRMPSAVGYQPTLATDMGELQERITSTRRGSITSVQAIYVPADDITDPAPATTFAHLDATVVLSRRIAELGLYPAVDPLDSSSKILDPAIVGREHYEVARGVQEVLQRYKDLQDIIAILGVEELSPEDKLVVHRARRIQRFLSQPFHVAERFTGRPGRYVPIEETIRGFKEILDGKLDDVPEQAFLMAGNIDEVKERAKEMRS | not soluble
6 | MIQIAIAGSSDEKPLEVAVRKTKEFIKALPSDVILMTGGRGGIMEVASEEFRKKGGIVVGILPYSDNGNRFNTVRVKTGLNPVERSGVLIESADVLVVLGGGVGTMIEALMAYNLGIPVIVITGTGYASDRLMELAKEGYFDHKRIVKVIFTDDPKEAAKLALKIGGERSEARDI | soluble
7 | QMQMGLSSFDRVMDVVDMTAEHPDPEHPLDLPAGPLSLELENVHFDGILNGTTLTVPAGDTVAIVGPPGSGKTMAVQLLCGFYRPESGQIRLGGVDTTQLRRHDLRNAVSCVFDDPFLYSASIRDNIAMGRNVTDVEIERAARIAQAHDFITALPHGYDEIVGERGLTLSGGQRQRIAIARAVLERPRVLILDDATSAIDVTTEHAIYEQLSTELSDVTILAVAHRNSTLSLADSVALIDNGRIVDHGSLSYMRANPQFVYLMDVQEHLRKRNSHEPFVPFDDGTEPEWTQLWPEIASSQHDSRLTINSSAMKAAASVAGANPAAGGRGRGRGGMAASIPATPELLARVDALPPTRDTPGPRPLLDHDHGKVTAHQLFASVR | not soluble
8 | MAHHHHHHMNSGYPGPSGITVGSPGLPPGSLGSPFPEQMTSAHSSDGMQGSNASQVPLTIHADVDQHSKSHSPTLTSGVEVLFATHQPPVAGVNAPWDEDDDWSTPGAPAQHPASVGAPAKPPLPPGNNAPPPILIAEQMNPGSPAEPHPTPVAMSPPPSSDGFIASSSRAGSPNCPPTPLEKPSAANVAKVDALMKQIASRTAAMDAATKEKEMKIVTAAQEYLKALMAKRGEEVMNAKAIHKEEQQVGAEKINEHKKSGDVWSAVGLLVDLQKPNQYSRSTEQMRTVLSALNATPAKK | soluble
9 | MKEIKVNELTDNLFETISKEWMLVTAGTKDKFNTMTANWGGAGFLWNRPVAFIFIRPERYTFDFIEQNDYLTLSFLGEEHKEIHKICGSKSGRDMDKVKATGLSPLFTENGSITFEQARLTFECKKLYADLIKPGNFIDKSITDRWYGESHGGFHKMYVVEIVNVLSR | soluble
10 | MGSSHHHHHHSSGRENLYFQGMADQDQLKALRLRIDSLDEKLLELISERARCAQDVARVKTQTLGEGEAPVFYRPEREAWVLKHIMQLNKGPLDNEEVARLFREIMSSCLALEQPLKVAYLGPEGTFTQAAALKHFGNAVISTPMAAIDEVFREVAAGAVNFGVVPVENSTEGAVNHTLDSFLEHDMVICGEVELRIHHHLLVGETTKTDNITRIYSHAQSLAQCRKWLDSHYPSVERVAVSSNADAAKRVKSEWNSAAIAGDMAASLYDLSKLHEKIEDRPDNSTRFLIIGNQEVPPTGDDKTSIIVSMRNKPGALHELLVPFHNNGIDLTRIETRPSRSGKWTYVFFIDFVGHHKEPLIKDVLEKIGQEAVALKVLGSYPKAVL | soluble
11 | MGSDKIHHHHHHLFDRYEAGETAVLVHIDFSDDERREDLVELQLLVESAGARSVGVITGSRRAPDRKFFVGTGKAEELAAMVAATEAKVVIFNHALSPAQERNLERVCHCRVLDRTTLILDIFAQRARTHEGKLQVELAQLRHMSTRLIRGWTHLERQKGGIGMRGPGETQLETDRRLLRGRIKNINRRLDKVDKQREQSRRSRKRSDLATVSLVGYTNAGKSTLFNGLTSSDVYAADQLFATLDPTLRKLDLPDGAVILADTVGFIRHLPHDLVAAFKATLQETRQAELLLHIVDCADDNMQDNFDQVQDVLKEIDADEIPQLVVCNKIDLLEDFAPRIDYAEDGTPERVWLSAQKGQGFDLLLQAITELVGNIVLELTLKVPATGGHYIGQMYKLDVIEHKDYDDLGNCIVKIRLLDADWRRMIKQSQGELETFVFEASETDVIL | not soluble
12 | MMSQQFNVAIFGATGAVGETMLEVLQEREFPVDELFLLASERSEGKTYRFNGKTVRVQNVEEFDWSQVHIALFSAGGELSAKWAPIAAEAGVVVIDNTSHFRYDYDIPLVVPEVNPEAIAEFRNRNIIANPNCSTIQMLVALKPIYDAVGIERINVTTYQSVSGAGKAGIDELAGQTAKLLNGYPAETNTFSQQIAFNCIPQIDQFMDNGYTKEEMKMVWETQKIFNDPSIMVNPTCVRVPVFYGHAEAVHVETRAPIDAEQVMDMLEQTDGIELFRGADFPTQVRDAGGKDHVLVGRVRNDISHHSGINLWVVADNVRKGAATNAVQIAELLVRDYF | not soluble
13 | MSLKDVSLSSFDAHDLDLDKFPEVVRDRLTQFLDAQELTIADIGAPVTDAVAHLRSFVLNGGKRIRPLYAWAGFLAAQGHKNSSEKLESVLDAAASLEFIQACALIHDDIIDSSDTRRGAPTVHRAVEADHRANNFEGDPEHFGVSVSILAGDMALVWAEDMLQDSGLSAEALARTRDAWRGMRTEVIGGQLLDIYLESHANESVELADSVNRFKTAAYTIARPLHLGASIAGGSPQLIDALLHYGHDIGIAFQLRDDLLGVFGDPAITGKPAGDDIREGKRTVLLALALQRADKQSPEAATAIRAGVGKVTSPEDIAVITEHIRATGAEEEVEQRISQLTESGLAHLDDVDIPDEVRAQLRALAIRSTERREGHHHHHH | soluble
14 | GSHMKNSVSVDLPGEMKVLVSKEKNKDGKYDLIATVDKLELKGTSDKNNGSGVLEGVKADKSKVKLTISDDLGQTTLEVFKEDGKTLVSKKVTSKDKSSTEEKFNEKGELSEKKITRADKSSTEEKFNEKGELSEKKITRADKSSTEEKFNEKGELSEKKITRADKSSTEEKFNEKGELSEKKITRADKSSTEEKFNEKGELSEKKITRADKSSTEEKFNEKGEVSEKIITRADGTRLEYTGIKSDGSGKAKEVLKGYVLEGTLTAEKTTLVVKEGTVTLSKNISKSGEVSVELNDTDSSAATKKTAAWNSGTSTLTITVNSKKTKDLVFTKENTITVQQYDSNGTKLEGSAVEITKLDEIKNALK | soluble
15 | MIRVASLIKAMSDTQLQIAQGASPLTGLPGNSAIEQEIKRRLNSGNAFGMIYADLNQFKAFNDTYGFQYGDSIIKLLGKILMQDSLKADDLAFVGHVGGDDFIILTTQNVTKTLGETILLSFQEQLSAMQGAQDLSLALAGLIIYPHTAWTPATLSERIAAVKREAKKAHCNYFLLRELEHHHHHH | not soluble
16 | MPMKEFPGLFLWKMWSLDKKKENMLKTHDPGISRLEPVTKTKPWREPLWERNWQGQHLDSRGYLAGPGREDGRNPLKLFVRATLQESLQFHRPDFISHIWERIKRLKLIVQERKLQSMLKSERDALFDIDRERQGHQNRMRPLPKRVFLAVQKNKPISKKEMIQRSKRTHAGGTVAQRLPGALWVKERLPGKGEKHPGIPVTSGSSTQTM | not soluble
17 | MKNLPIGGVWKGKVKLHSNSPAQDYFANITLNTLDPNHIDVFFPEFAHATPRVQLDLHPTGSVNGSNYAQDLTMLDMCLYDGFNGNAISYEIMLKDEGRPAAGRRDGYFSIYRQGGTTTDEGERIDYRVKMYNPETGGQIDVRNNENMVWNSINLKRVRPVVLPGIRYAVMCVPTPLTLAVDKFSVMDKQAGYYMGKLSVIFTPSLPTIN | not soluble
18 | MQDELFETEKIPPKNTKNTKNAPKKSFEEHVHSLERAIDRLNDPNLSLKDGMDLYKTAMQELFLAQKLLENAYLEHEKLQTPDQKA | not soluble
19 | MHSENQSKGVHYAKSQRLLEINHAHLQLMESLLDEGKKYNIFKPGIDPLQVNINIAALGGYYLINQHTLGLVYHISMVSPQALEARRKVIKETILSWLLVDPSSTAHE | not soluble
20 | GPGSMADILKSVKRIVVKVGSSILVDNQEIAAHRIEALCKFIADLQTKYEVILVTSGAVAAGYTQKEMDKAYVPNKQALASMGQPLLMHMYYTQLQKHGILCAQMLLAAYDLDSRKRTMNAHNTIEVLISHKVIPIINENDATALHELVFGDNDRLSALVAHHFKADLLVILSDIDGYYTENPRASTDAKIRSVVHELSPDDLVAEATPNNPFATGGIVTKLQAAQFLLERGGKMYLSSGFHLEKAREFLFGGSHEIGTLFYPRGSSS | soluble
